Measurements published in patent publication US20150266963A1 (ARGEN X B V, published 2015).

What was measured:
[1] = target: T1, human CD70 expressed on the surface of cells (human, UniProt P32970 1-193); assay: FACS MFI at 37 C, HH cells; reference SGN70
T1 construct: whole, on cells; also called cell surface expressed CD70; CD70 on cells
T1 sequence (looked up): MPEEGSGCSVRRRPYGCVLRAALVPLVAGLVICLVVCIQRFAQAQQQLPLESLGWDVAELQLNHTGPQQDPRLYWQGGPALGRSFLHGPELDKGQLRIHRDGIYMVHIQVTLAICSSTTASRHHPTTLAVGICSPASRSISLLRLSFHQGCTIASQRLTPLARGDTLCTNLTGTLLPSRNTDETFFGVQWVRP
Protocol: (§1) Several cancer cell lines were tested by FACS analysis for binding of ARGX-110 and SGN70 (described in US2010/0129362) at saturating mAb concentrations (at least 2 μg/ml). This was either done at 4° C. (1 hour incubation of cells with mAbs) or at 37° C. (15 minutes incubation of cells with mAbs). Binding was detected using anti-hIgG1-Fc-FITC (AF006, Binding Site) or anti-hIgG1-Fc-PE antibody (eBioscience, 12-4998). Fluorescence was measured using a flow cytometer.

[2] = target: T1, human CD70 expressed on the surface of …; assay: FACS MFI at 37 C, L428 cells; reference SGN70
Protocol: as §1

[3] = target: T1, human CD70 expressed on the surface of …; assay: FACS MFI at 37 C, HUT78 cells; reference SGN70
Protocol: as §1

[4] = target: T1, human CD70 expressed on the surface of …; assay: FACS MFI at 37 C, MHHPREB1 cells; reference SGN70
Protocol: as §1

[5] = target: T2, human-mouse CD70 chimera chim-1 (Flag-TNC-CD70) (Homo sapiens (Human), UniProt P32970 58-193, Soluble homotrimer held by the TNC domain; one CD70 ECD chain is given.); assay: ELISA; chimera captured by anti-Flag mAb; anti-human-Fc-HRP
T2 construct: also called chimera 1; not shown: N-terminal Flag tag, TNC (tenascin-C) trimerisation domain and any linkers of the Flag-TNC-CD70 construct
T2 chain: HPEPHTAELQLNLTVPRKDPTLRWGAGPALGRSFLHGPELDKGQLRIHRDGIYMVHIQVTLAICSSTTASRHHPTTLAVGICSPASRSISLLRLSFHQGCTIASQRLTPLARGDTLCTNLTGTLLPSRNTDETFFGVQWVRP
Protocol: (§2) A Maxisorb (Nunc) microtiter plate was coated with 3.5 μg/ml mouse M2 anti-Flag mAb (Sigma Aldrich, F3165) and the different chimeras were captured. A dilution series of the CD70 mAbs to be tested was applied starting at a concentration of 10 μg/ml and making 3-fold dilutions. After 2 hours, binding was detected using anti-human-Fc-HRP at a 16000-fold dilution. Staining was done with ABTS and OD at 405 nm was measured. As a positive control, CD27-Fc was applied which is able to bind to both human and mouse CD70 with good affinity as well as to the chimeric human-mouse CD70 variants.

[6] = target: T3, recombinant human CD70 (Flag-TNC-CD70) (human, UniProt P32970 39-193); assay: blocking ELISA; competitor CD27-Fc; references SGN70 and MDX1411
T3 construct: extracellular domain; Captured by anti-Flag mAb in ELISA; as 'recombinant human CD70' immobilised on Biacore CM5 chips; TNC is for trimerisation; also called recombinant CD70; human recombinant CD70; not shown: Flag tag and TNC trimerisation domain
T3 sequence (looked up): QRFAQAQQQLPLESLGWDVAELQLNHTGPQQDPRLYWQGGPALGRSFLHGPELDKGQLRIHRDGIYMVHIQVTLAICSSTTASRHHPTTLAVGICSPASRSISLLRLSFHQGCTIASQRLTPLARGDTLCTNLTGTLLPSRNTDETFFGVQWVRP
Protocol: (§3) In this assay, a microtiter plate (Nunc Maxisorb) was first coated with 100 μl anti-FLAG M2 monoclonal antibody (Sigma Aldrich, F3165) at 1250-fold dilution in PBS (to achieve a final concentration of approximately 3.5 μg/ml) overnight at 4° C. The plate was washed once with PBS-Tween and incubated at RT for 2 hours with 300 μl PBS-1% casein. The plate was washed a further three times with PBS-Tween. 100 μl of 5 ng/ml (80 pM) Flag-TNC-CD70 (The Journal of Immunology, 2009, 183: 1851-1861) diluted in PBS-0.1% casein was added to the plate and incubated at RT for 1 hour while shaking. The plate was washed five times with PBS-Tween. The CD70 mAb to be tested was added to the plate; various concentrations were achieved by diluting the stock antibody solution in PBS-0.1% casein. Immediately thereafter, 50 μl of 1 μg/ml (final concentration 6.5 nM) recombinant human CD27 Fc chimera (R&D systems 382-CD, MW=46.5 kDa) was added, and incubated at RT for 1 hour while shaking. The plate was washed five times with PBS Tween. 100 μl of biotinylated anti-CD27 (eBioscience 13-0271), diluted 500-fold in PBS-0.1% casein, was added, and the plate incubated at RT for a further hour, while shaking. The plate was washed five times with PBS Tween. […] 100 μl TMB was added to the plate and the OD at 620 nm was measured. […]

[7] = target: cynomolgus monkey Flag-TNC-CD70 (cynomolgus monkey); assay: blocking ELISA; cynomolgus Flag-TNC-CD70; competitor CD27-Fc
Protocol: as §3

[8] = target: T3, recombinant human CD70 (Flag-TNC-CD70); assay: ELISA; Flag-TNC-CD70 captured by anti-Flag mAb; anti-human-Fc-HRP
Protocol: as §2

B1: ARGX-110 (non-fucosylated 41D12 human IgG1) (antibody, V domains shown)
VH: EVQLVESGGGLVQPGGSLRLSCAASGFTFSVYYMNWVRQAPGKGLEWVSDINNEGGTTYYADSVKGRFTISRDNSKNSLYLQMNSLRAEDTAVYYCARDAGYSNHVPIFDSWGQGTLVTVSS
VL: QAVVTQEPSLTVSPGGTVTLTCGLKSGSVTSDNFPTWYQQTPGQAPRLLIYNTNTRHSGVPDRFSGSILGNKAALTITGAQADDEAEYFCALFISNPSVEFGGGTQLTVLG
notes: also called 41D12 (ARGX-110)
Signal in FACS of ARGX-110/signal in FACS of SGN70 [1]: 1.7 ratio | Signal in FACS of ARGX-110/signal in FACS of SGN70 [2]: 1.4 ratio | Signal in FACS of ARGX-110/signal in FACS of SGN70 [3]: 1 ratio | Signal in FACS of ARGX-110/signal in FACS of SGN70 [4]: 1.2 ratio | EC50 [5]: 0.027 µg/mL | fold more potent in blocking than the two benchmark mAbs [6]: ~100 fold | IC50 [7]: 0.048 µg/mL | EC50 [8]: 0.022 µg/mL
